Tested on: MS2 coat protein
Experiment: apparent KD of MS2 coat protein; designed switch direction (-1 OFF switch, 1 ON switch): -1; higher = weaker reporter binding
Outline: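 The apparent KD reported per design is the median over clusters of curve fits to normalised cluster fluorescence. The RNA switches were transcribed on Illumina chips by stalled E. coli RNA polymerase. SNAP-549-labelled MS2 coat protein was titrated from 0.7 or 1.5 nM, doubling up to 3 µM, in Tris-HCl pH 7.5 buffer containing KCl, MgCl2, BSA, DTT, tRNA and Tween-20, with no input, 200 uM small-molecule ligand, or an oligonucleotide input.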

[1] = Eterna round: R95, input ligand: FMN 200 uM
[2] = Eterna round: R95, input ligand: microRNA oligo, concentration not stated
[3] = Eterna round: R95, input ligand: none
[4] = input ligand: microRNA oligo, concentration not stated

Sequence: AAAGGUGAGUAGGAUAUCCACGCACGAAUAAAGGGAGAAGGACUUACAUGAGGAUCACCCAUGUAAGGUGGUAA [Orte] (puzzle: Exclusion 6)
- apparent KD of MS2 coat protein [1]: 17.1 nM
- apparent KD of MS2 coat protein [2]: 14.3 nM
- apparent KD of MS2 coat protein [3]: 13.8 nM

Sequence: AAAGUACAUGAGGAUCACCCAUGUCAGGAUAUUGCCACAAGGCCCGGAGCCCAGAGCGCGAGAAGGGACAUUAG [Eternabot (Original) Solution 12] (Eterna round: R97, puzzle: Exclusion 1)
- apparent KD of MS2 coat protein (input ligand: FMN 200 uM): 55.4 nM
- apparent KD of MS2 coat protein (input ligand: none): 24 nM

Sequence: AAAUAACAAGCGAGAUCCUACAUGAGGAUCACCCAUGUGCUCGUCUUAAUAAGUACUAUCACGAAAGUGAUAGUACA [Mat - Sensor v3 - turn-off var 1 - Eli Mod - D67] (Eterna round: R96, puzzle: Sensor v3, turn-off variant 1)
- apparent KD of MS2 coat protein (input ligand: FMN 200 uM): 15.8 nM
- apparent KD of MS2 coat protein [4]: 333 nM
- apparent KD of MS2 coat protein (input ligand: none): 18.2 nM

Sequence: AAAUAACAAGCGAGAUCCUACAUGAGGAUCACCCAUGUGCUCGUCUUAAUAAGUACUAUCACGAAAGUGAUAGUACA [Mat - Sensor v3 - turn-off var 1 - Eli Mod - D67] (puzzle: Sensor v3, turn-off variant 1)
- apparent KD of MS2 coat protein [1]: 16.6 nM
- apparent KD of MS2 coat protein [2]: 471 nM
- apparent KD of MS2 coat protein [3]: 16 nM

Sequence: AAAUAAGAAGGAUAUACAAAUUAAAAGGUCCUUAAGGCAAGACAUGAGGAUCACCCAUGUAGAAGGUCUGAAAA [Teati] (puzzle: Exclusion 2)
- apparent KD of MS2 coat protein [1]: 39.5 nM
- apparent KD of MS2 coat protein [2]: 23 nM
- apparent KD of MS2 coat protein [3]: 22.6 nM

Sequence: AAAUAAUCAGGAUAUACAUGAGGAUCACCCAUGUACCUCUUGUACGAGGGCCGCCCGUGUAGAAGGGAUGACAA [Arralara] (puzzle: Exclusion 3)
- apparent KD of MS2 coat protein [1]: 72.6 nM
- apparent KD of MS2 coat protein [2]: 40.1 nM
- apparent KD of MS2 coat protein [3]: 40 nM

Sequence: AAAUACAAGUAAAGAUCCUACAUGAGGAUCACCCAUGUGCUCGUCUUAUAAAGUACUAUCACGAAAGUGAUAGUACA [Sensor 3, v1 - 20] (puzzle: Sensor v3, turn-off variant 1)
- apparent KD of MS2 coat protein [1]: 88.6 nM
- apparent KD of MS2 coat protein [2]: 13.9 nM
- apparent KD of MS2 coat protein [3]: 112 nM

Sequence: AAAUCACAUGAGGAUCACCCAUGUGAGGAUAUGAUACUAUGUACUUCGGUACAUAGUAUCAGAAGGCAUAUGGA [Ex1-3: 32] (Eterna round: R96, puzzle: Exclusion 1)
- apparent KD of MS2 coat protein (input ligand: FMN 200 uM): 39.4 nM
- apparent KD of MS2 coat protein [4]: 20.6 nM
- apparent KD of MS2 coat protein (input ligand: none): 23.7 nM

Sequence: AAAUCACAUGAGGAUCACCCAUGUGAGGAUAUGAUACUAUGUACUUCGGUACAUAGUAUCAGAAGGCAUAUGGA [Ex1-3: 32] (puzzle: Exclusion 1)
- apparent KD of MS2 coat protein [2]: 22.9 nM

Sequence: AAAUCGAGACGGAGAUCCGACAUGAGGAUCACCCAUGUCUCGUAAGCUUUUUGCUCGUCUUAUACUCCUCUGUUCUC [Elimod 50 - Jieux - Sensor, turn-off variant 1] (Eterna round: R97, puzzle: Sensor, turn-off variant 1)
- apparent KD of MS2 coat protein (input ligand: FMN 200 uM): 22.5 nM
- apparent KD of MS2 coat protein (input ligand: none): 22.4 nM

Sequence: AAAUCGGAGGAGGAUAUGGUACAGGAAACGGUGCCAGAAGGUUUCACAUGAGGAUCACCCAUGUCAAAUAGCGA [EX6 #59] (Eterna round: R97, puzzle: Exclusion 6)
- apparent KD of MS2 coat protein (input ligand: FMN 200 uM): 21.3 nM
- apparent KD of MS2 coat protein (input ligand: none): 20.3 nM

Sequence: AAAUUAGCAAGUAGGUCCGACAUGAGGAUCACCCAUGUAAUCUAAAAUUACGCUGCACGAAAGUGCGCUCGUCUUAG [Sensor-V1 #12] (Eterna round: R97, puzzle: Sensor, turn-off variant 1)
- apparent KD of MS2 coat protein (input ligand: FMN 200 uM): 439 nM
- apparent KD of MS2 coat protein (input ligand: none): 385 nM

Sequence: AAAUUAGCAAGUAGGUCCGACAUGAGGAUCACCCAUGUUAUCUGAAAUAACGCAGCAUGAUUGUGAGCUCGUCUUAG [Sensor-V1 #6] (Eterna round: R97, puzzle: Sensor, turn-off variant 1)
- apparent KD of MS2 coat protein (input ligand: FMN 200 uM): 80.8 nM
- apparent KD of MS2 coat protein (input ligand: none): 105 nM

Sequence: AACAAACAUGAGGAUCACCCAUGUCAGGAUAUGGCGGCUAGUGUGCCACCGUACACUACCAGAAGGGACUGGGU [Diedtiis] (puzzle: Exclusion 1)
- apparent KD of MS2 coat protein [2]: 111 nM

Sequence: AACACACAUGAGGAUCACCCAUGUGAGGAUAUCGUCGAGGUUGUAAUGCCAACCGUGACGAGAAGGCACUUGGG [Exclusion 1 (Mod 3.1 solution 40 by Eternabot)] (Eterna round: R97, puzzle: Exclusion 1)
- apparent KD of MS2 coat protein (input ligand: FMN 200 uM): 44.4 nM
- apparent KD of MS2 coat protein (input ligand: none): 282 nM

Sequence: AACAGGUCAGGAUAUACAUGAGGAUCACCCAUGUAGACUUCUGGUCUACCGAGACCGUGUAGAAGGGACCUGAA [Exclusion 3 (MOD3 of #98 Marzena11)] (Eterna round: R97, puzzle: Exclusion 3)
- apparent KD of MS2 coat protein (input ligand: FMN 200 uM): 104 nM
- apparent KD of MS2 coat protein (input ligand: none): 35.7 nM

Sequence: AACAGUACAGGAUAUACAUGAGGAUCACCCAUGUGAGAUUUAAGUGGCGUACCACAAAGUAGAAGGGUACUGGA [JL Maslow Revisted mod 5] (Eterna round: R96, puzzle: Exclusion 3)
- apparent KD of MS2 coat protein (input ligand: FMN 200 uM): 230 nM
- apparent KD of MS2 coat protein [4]: 29.6 nM
- apparent KD of MS2 coat protein (input ligand: none): 37.3 nM

Sequence: AACAUGGCAGGAUAUUGAAAAUUGCACUUGAGGAUCACCCAAGUGGUUCUGCGGGCGAAGUAAGAAGGGCCUAAAA [Xeraabi] (Eterna round: R97, puzzle: Exclusion 5)
- apparent KD of MS2 coat protein (input ligand: FMN 200 uM): 232 nM
- apparent KD of MS2 coat protein (input ligand: none): 27.3 nM

Sequence: AACCAACAUGAGGAUCACCCAUGUGAGGAUAUAGCUAACGACCAGACCUGGAAUGUUGUUAGAAGGUGCAGGGU [Eternabot (Original) Solution 4] (Eterna round: R97, puzzle: Exclusion 1)
- apparent KD of MS2 coat protein (input ligand: FMN 200 uM): 44.4 nM
- apparent KD of MS2 coat protein (input ligand: none): 36.2 nM

Sequence: AACCAGCGAGGAUAUCGUUCGGAUAACAUGAGGAUCACCCAUGUGAGUCGUGUUUACGAACGAGAAGGCGCGACUC [Cequus] (Eterna round: R97, puzzle: Exclusion 5)
- apparent KD of MS2 coat protein (input ligand: FMN 200 uM): 218 nM
- apparent KD of MS2 coat protein (input ligand: none): 798 nM

Sequence: AACCAGCGAGGAUAUGCUUGAGCUUGUUCUGGUUAUAAUCGACUUGAGGAUCACCCAAGUAGAAGGUGCUGGCG [EX2 #57] (Eterna round: R97, puzzle: Exclusion 2)
- apparent KD of MS2 coat protein (input ligand: FMN 200 uM): 42.6 nM
- apparent KD of MS2 coat protein (input ligand: none): 20 nM

Sequence: AACCCUGUAGGAUAUCAGGGACUACACAUGAGGAUCACCCAUGUGACCUCAACCUAGUGUUGAGAAGGACAGGUAU [Eternabot (Original) Solution 22] (Eterna round: R97, puzzle: Exclusion 5)
- apparent KD of MS2 coat protein (input ligand: FMN 200 uM): 50.9 nM
- apparent KD of MS2 coat protein (input ligand: none): 49.1 nM

Sequence: AACCGCGGAGGAUAUACACGGUGAUACUGAACUCCGGCACGACAUGAGGAUCACCCAUGUAGAAGGCCGAAUAU [EX2 B.13] (Eterna round: R97, puzzle: Exclusion 2)
- apparent KD of MS2 coat protein (input ligand: FMN 200 uM): 151 nM
- apparent KD of MS2 coat protein (input ligand: none): 21.3 nM

Sequence: AACCUGAGGCAAAGCUUUAGGUGUACAUGAGGAUCACCCAUGUAGGAUAUGGUAGGCAAAGCUUACCAGAAGGACAUUAUGAUG [Mat - Exclusion NG 3 - Mod of JL - D51] (Eterna round: R96, puzzle: Exclusion NG 3)
- apparent KD of MS2 coat protein (input ligand: FMN 200 uM): 104 nM
- apparent KD of MS2 coat protein [4]: 49.5 nM
- apparent KD of MS2 coat protein (input ligand: none): 62.9 nM

Sequence: AACCUGAGGCAAAGCUUUAGGUGUACAUGAGGAUCACCCAUGUAGGAUAUGGUAGGCUUUGCUUACCAGAAGGACAUAAUGAUG [Mat - Exclusion NG 3 - Mod of JL - D46] (Eterna round: R96, puzzle: Exclusion NG 3)
- apparent KD of MS2 coat protein (input ligand: FMN 200 uM): 92.2 nM
- apparent KD of MS2 coat protein [4]: 42 nM
- apparent KD of MS2 coat protein (input ligand: none): 53.3 nM

Sequence: AACUAGGCAGGAUAUACAUGAGGAUCACCCAUGUGCCGAUACAAAGGGACUAACAGAGGUAGAAGGGCCUAGAA [ChP 13.04.2015 #1] (puzzle: Exclusion 3)
- apparent KD of MS2 coat protein [1]: 100 nM
- apparent KD of MS2 coat protein [2]: 36.2 nM
- apparent KD of MS2 coat protein [3]: 47.8 nM

Sequence: AACUCACAUGAGGAUCACCCAUGUGAGGAUAUGAUACUAUGUACUUCGGUACAUAGUAUCAGAAGGCAUGUGGA [Ex1-3: 90] (puzzle: Exclusion 1)
- apparent KD of MS2 coat protein [2]: 12.9 nM

Sequence: AACUGGACAGGAUAUGUUCUUGAGCACUUGAGGAUCACCCAAGUCGUCGAGAACUCAGGCACAGAAGGGUUAAUGA [Bera] (Eterna round: R97, puzzle: Exclusion 5)
- apparent KD of MS2 coat protein (input ligand: FMN 200 uM): 35.1 nM
- apparent KD of MS2 coat protein (input ligand: none): 17.7 nM

Sequence: AACUUGUAAGGAUAUACAUGAGGAUCACCCAUGUGUCCCACGAACCGACAGGUCGUCUGUAGAAGGUGCAACAU [Eternabot (L1) Solution 88] (Eterna round: R97, puzzle: Exclusion 3)
- apparent KD of MS2 coat protein (input ligand: FMN 200 uM): 29 nM
- apparent KD of MS2 coat protein (input ligand: none): 27.4 nM

Sequence: AAGAAACAUGAGGAUCACCCAUGUGAGGAUAUGAAAAAGAAAAUAAAAUAAAUAAUAAUCAGAAGGCACAAAGG [Mat - Mod of Hog D6] (puzzle: Exclusion 1)
- apparent KD of MS2 coat protein [1]: 43.1 nM
- apparent KD of MS2 coat protein [2]: 44.4 nM
- apparent KD of MS2 coat protein [3]: 37.3 nM

Sequence: AAGAAACAUGAGGAUCACCCAUGUGAGGAUAUGGCCCGCCCGGCGUGAGCUGGUUUUAUCAGAAGGCACAAAGG [salish99_ex1_r4_015] (Eterna round: R97, puzzle: Exclusion 1)
- apparent KD of MS2 coat protein (input ligand: FMN 200 uM): 39.4 nM
- apparent KD of MS2 coat protein (input ligand: none): 44.6 nM

Sequence: AAGAAACAUGAGGAUCACCCAUGUGAGGAUAUGUAAAAGAAAAUAAAAUAAAGAAGAAACAGAAGGCACAAAGG [Mat - Mod of Hog D20] (puzzle: Exclusion 1)
- apparent KD of MS2 coat protein [1]: 53.4 nM
- apparent KD of MS2 coat protein [2]: 43.4 nM
- apparent KD of MS2 coat protein [3]: 43 nM

Sequence: AAGAAACAUGAGGAUCACCCAUGUGAGGAUAUGUAAAAUAAAAUAAAAUAAAGAAUAAACAGAAGGCACAAAGG [Mat - Mod of Hog D24] (puzzle: Exclusion 1)
- apparent KD of MS2 coat protein [1]: 77.9 nM
- apparent KD of MS2 coat protein [2]: 64.5 nM
- apparent KD of MS2 coat protein [3]: 49.7 nM

Sequence: AAGAACGUAGGAUAUACAUGAGGAUCACCCAUGUGAGGAAGGAGUAGGAAGCGUGGAAGUAGAAGGACGGAGAG [JR_Exclu3_Sub075] (puzzle: Exclusion 3)
- apparent KD of MS2 coat protein [1]: 27.9 nM
- apparent KD of MS2 coat protein [2]: 39.4 nM
- apparent KD of MS2 coat protein [3]: 29.3 nM

— the supplement of paper PMC9170038
